The record followed here is US20140348834A1 (published 2014).

Experiment [1] has as its target T1, human IL-17A (human, UniProt Q16552 24-155). The experiment can be described thus: cell-based or functional assay.
T1 sequence (Q16552 24-155): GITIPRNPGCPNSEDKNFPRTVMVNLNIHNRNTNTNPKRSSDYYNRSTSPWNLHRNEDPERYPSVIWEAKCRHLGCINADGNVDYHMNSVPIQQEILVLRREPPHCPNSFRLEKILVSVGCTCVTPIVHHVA
In experiment [2] the target is T1, human IL-17A. The experiment can be described thus: hIL17A ELISA.
Experiment [3] addresses T1, human IL-17A. As to the kind of experiment: cell-based or functional assay. This is another data set of the same source.
Experiment [4] deals with T2, cynomolgus monkey IL-17A (cynomolgus monkey, UniProt A0A2K5TTB0 24-155). The experiment can be described thus: cell-based or functional assay.
Experiment [5] concerns the target T3, human IL-17A (human, UniProt Q16552 24-155).
T3 construct: Biotinylated in the ELISA; also called hIL-17; Hu IL-17A
The experiment can be described thus: ELISA, captured antibody, serially diluted biotin-IL-17 (Example 1.5.1). For orientation: An ELISA detects its analyte on a solid surface through an enzyme-linked reagent.
T3 sequence (Q16552 24-155 limits assumed): as the sequence (Q16552 24-155) above
Method: The following protocol is used to characterize the binding of IL-17 antibodies to human IL-17 by enzyme-linked immunosorbent assay (ELISA). […] 1. Coat ELISA plate with 50 μl per well of Goat anti Mouse IgG-Fc at 2 ug/ml, overnight at 4° C. […] 2. Wash plate 3×PBS/Tween. […] 3. Add 50 μl Mab diluted to 1 μg/ml in PBS/0.1% BSA to appropriate wells. Incubate 1 hr at room temperature (RT). […] 4. Wash plate 3× with PBS/Tween. […] 5. Add 50 μl of serial diluted biotin-IL17 (human IL-17, IL-17A/F, cyno IL-17) to appropriate wells. Incubate 1 hr at room temperature (RT). […] 6. Wash plate 3× with PBS/Tween. […] 7. […] Incubate 1 hr at RT. […] 8. Wash plate 3× with PBS/Tween. […] 9. […] 10. Stop reaction with 50 μl 2N H₂SO₄. […] Read absorbance at 450 nm.

For experiment [6], the target named is human IL-17A/F (human, UniProt Q16552 24-155; Q96PD4 31-163). As to the kind of experiment: cell-based or functional assay.
Target sequence in this assay (Q16552 24-155 limits assumed, chain 1 of 2): as the sequence (Q16552 24-155) above
Target sequence in this assay (Q96PD4 31-163 limits assumed, chain 2 of 2): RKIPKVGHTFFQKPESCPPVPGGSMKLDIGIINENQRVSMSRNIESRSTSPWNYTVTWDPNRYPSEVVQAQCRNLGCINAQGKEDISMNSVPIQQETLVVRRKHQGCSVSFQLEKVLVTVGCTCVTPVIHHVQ
The target in experiment [7] is cynomolgous monkey (cyno) IL-17A (cynomolgus monkey, UniProt A0A2K5TTB0 24-155). The experiment can be described thus: cell-based or functional assay.
The target in experiment [8] is T3, human IL-17A. The experiment can be described thus: cell-based or functional assay. This is another data set of the same source.
Experiment [9] addresses T1, human IL-17A. As to the kind of experiment: SPR (Biacore 3000), antibody captured by anti-Fc, antigen in solution.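 Note: purified recombinant IL-17 antigens flowed over captured antibodies in HBS-EP buffer, global Langmuir one-to-one fit of association and dissociation phases, KD derived from koff over kon.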 On the technique in general: Surface plasmon resonance follows binding to a sensor surface in real time, without labels.
The target in experiment [10] is T4, human IL-17A/F (human, UniProt Q16552 24-155; Q96PD4 31-163).
T4 construct: Recombinant; biotinylated in the ELISA; also called hIL-17A/F; HuIL-17A/F
Described as above.
T4 sequence (Q16552 24-155, chain 1 of 2): as the sequence (Q16552 24-155) above
T4 sequence (Q96PD4 31-163, chain 2 of 2): as the sequence (Q96PD4 31-163 limits assumed, chain 2 of 2) above

The next experiment deals with T5, rat IL-17A (rat, UniProt Q61453 18-150, limits assumed).
T5 construct: Purified recombinant protein in SPR
T5 sequence (looked up): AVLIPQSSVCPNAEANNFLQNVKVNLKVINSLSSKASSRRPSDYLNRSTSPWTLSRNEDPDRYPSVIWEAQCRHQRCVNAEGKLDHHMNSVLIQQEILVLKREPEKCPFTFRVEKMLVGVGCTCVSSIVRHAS
Described as above.

Experiment [11] has as its target T2, cynomolgus monkey IL-17A. Described as above.
A further experiment has as its target T6, mouse IL-17A (mouse, UniProt Q62386 26-158, limits assumed).
T6 construct: Purified recombinant protein in SPR; also called MuIL-17A; murine IL-17A
T6 sequence (looked up): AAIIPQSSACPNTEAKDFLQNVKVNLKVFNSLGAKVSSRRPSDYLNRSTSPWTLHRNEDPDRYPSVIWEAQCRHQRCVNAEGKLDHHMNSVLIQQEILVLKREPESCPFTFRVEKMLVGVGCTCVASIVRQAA
The experiment is described as above.

The target of experiment [12] is T1, human IL-17A. As to the kind of experiment: cell-based or functional assay. The source holds these as a separate data set.

Substitutions are numbered along the chain they refer to. Where two headings read alike, the source gives them in different places.

T2 sequence (A0A2K5TTB0 entry or part of it): as the sequence (Q16552 24-155) above, with T3A, P8S, N34S, I77V, N78K, P104R counted along it
Sequence of cynomolgous monkey (cyno) IL-17A (A0A2K5TTB0 entry or part of it): as the sequence (Q16552 24-155) above, with T3A, P8S, N34S, I77V, N78K, P104R counted along it

B1: ML109-1D8 (antibody, V domains shown)
VH: QVQLQQSGAELVRPGASVKLSCKASGYTFSDYEMHWVKQTPVHGLEWIGVIHPGNGGTAYNQKFRDKATLTADKSSTTAYMELSSLTSEDSAVYYCIRFLTYEGYFDYWGQGTTLTVSS
VL: SIVMTQTPKFLLVSAGDRVTITCKASQSVNNDVAWFQHKPGQSPKLLINYASNRYTGVPDRFTGSGYGTDFTFTISTVQSEDLAIYFCQQDYGSPYTFGGGTTLEIKR
For the molecule B1, the “Potency (pM), IL-17-driven IL-6 production in HS27 cells” value (“Potency (pM)” below) with human IL-17A [1] is 62 pM.

B2: IL17-h5C5.19 (antibody, V domains shown)
VH: B1 VH with S25L, S30T, M34F, K63N, T77S, A92G, I97T, T114A
VL: NIVMTQSPATLSVSPGERATLSCKASQSVSIDVGWFQQKPGQSPRLLIYHASNRYTGVPARFSGSGSGTDFTLTISSLQPEDFAVYFCQQDYSSPYTFGQGTKLEIKR
notes: IgG; constant regions not specified
Consider B2, for which the EC50 with human IL-17A [2] came to 0.03 nM. Also, the “Potency (pM)” value in the experiment with human IL-17A [3] is 11 pM; in the experiment with cynomolgus monkey IL-17A [4] it was 9 pM.

B3: IL17-G9-M2 (antibody, V domains shown)
VH: EVQLLESGGGVVQPGRSLRLSCAASGFIFSNYGMHWVRQAPGKGLEWVAVISYDGSNKYYADSVKGRFTISRDNSKNTLYLEMNSLRPEDTAVYYCAKVGASGDYYYSYGLDVWGQGTTVTVSS
VL: QSVLTQPPSASGTPGQTVSISCSGHNSNIGYHYVHWYQQVPGAAPKLLIYGDGWRPSGVPDRFSGSQSGTSASLAISGLQSEDEADYYCGTWDDWLGGYVFGTGTKVTVLG
For B3, the EC50 in the experiment with human IL-17A [5] amounted to 0.08 nM. Besides, the “Potency (pM)” value with human IL-17A/F [6] was determined as 44 pM; in experiment [7], 105 pM; in the experiment with human IL-17A [8], 38 pM.

B4: ML109-10G9 (antibody, V domains shown)
VH: QVQLKESGPALVAPSQSLSFTCTISGFSLSSYGVHWVRQPPGKGLEWLVVIWSDGTTTYNSALKSRLSISKDNSKSQVFLKMNSLQTDDTAMYYCARDGYYIYTMDYWGQGTSVTVSS
VL: DVVMTQTPLSLPVSLGDQASISCRSSQSLVHSNGNTYLHWYLQRPGQSPKLLIYKVSNRFSGVPDRFSGSGSGTDFTLKISRVEAEDLGLYFCSQGTHAPLTFGAGTKLELNR
In the case of B4, the “Potency (pM)” value with human IL-17A [1] stood at 131 pM.

B5: ML109-8B12 (antibody, V domains shown)
VH: QVQLKESGPGLVAPSQSLSITCTISGFSLTSYGVHWVRQPPGKGLEWLVVIWSDGTTTYNSALKSRLSITRDNSKSQVFLKMNSLQTDDTAIYYCARDSTWDYYYTMDYWGQGTPVTVSS
VL: DVVMTQTPLSLPVSLGDQASISCRSSQSLVHSNGNTYLHWYLQKPGQSPKLLIYKVSNRFSGVPDRFSGSGSGTDFTLKISRVEAEDLGVYFCSQSTHVYTFGGGTKLEIKR
On to B5, for which the “Potency (pM)” value with human IL-17A [1] worked out at 137 pM.

B6: IL17-h5C5.2 (antibody, V domains shown)
VH: EVQLVQSGAEVKKPGASVKVSCKASGYTFTDYEFHWVRQAPGQGLEWMGVIHPGNGGTAYNQNFRDRVTITADKSTSTAYMELSSLRSEDTAVYYCARFLTYEGYFDYWGQGTLVTVSS
VL: NIVMTQTPKFLLVSPGDRVTITCKASQSVSIDVGWFQQKPGQSPKLLIYHASNRYTGVPDRFTGSGYGTDFTFTVNTVQAEDLAVYFCQQDYSSPYTFGGGTKLELKR
notes: as for B2
B6 came in with an EC50 with human IL-17A [2] of 1.2 nM. The figures for the “Potency (pM)” value with human IL-17A [3] and with cynomolgus monkey IL-17A [4] were 6 pM and 11 pM, respectively.

B7: IL17-h5C5.15 (antibody, V domains shown)
VH: B6 VH with M48I, V68A, I70L, A97T
VL: B2 VL with N1E
notes: IgG; constant regions not specified; also called h5C5.15 (VH.1b-Vk.3a)
For B7, the Kd with human IL-17A [9] came to 0.458 nM; with human IL-17A/F [10] it was 1.43 nM; with rat IL-17A, 5.8 nM; with cynomolgus monkey IL-17A [11], 0.358 nM; with mouse IL-17A it was 2.83 nM. The koff with human IL-17A [9] worked out at 0.000437 s⁻¹; with human IL-17A/F [10], 0.00112 s⁻¹; in the experiment with rat IL-17A, 0.0036 s⁻¹; with cynomolgus monkey IL-17A [11], 0.000216 s⁻¹; with mouse IL-17A, 0.000557 s⁻¹. Further, the kon came to 954000 M⁻¹ s⁻¹ with human IL-17A [9]; 781000 M⁻¹ s⁻¹ in the experiment with human IL-17A/F [10]; 621000 M⁻¹ s⁻¹ with rat IL-17A; 603000 M⁻¹ s⁻¹ with cynomolgus monkey IL-17A [11]; 197000 M⁻¹ s⁻¹ with mouse IL-17A. Besides, in the experiment with human IL-17A [2], the EC50 was determined as 0.02 nM. The “Potency (pM)” value was 13 pM in the experiment with human IL-17A [3] and 12 pM in the experiment with cynomolgus monkey IL-17A [4].

B8: IL17-h5C5.14 (antibody, V domains shown)
VH: B6 VH
VL: B2 VL with N1E
notes: IgG; constant regions not specified; also called h5C5.14 (VH.1-Vk.3a)
With B8, the Kd was found to be 0.363 nM with human IL-17A [9]; 1.11 nM with human IL-17A/F [10]; 5.56 nM with rat IL-17A; 0.245 nM in the experiment with cynomolgus monkey IL-17A [11]; 1.86 nM with mouse IL-17A. Also, the koff was found to be 0.000472 s⁻¹ with human IL-17A [9]; 0.00119 s⁻¹ with human IL-17A/F [10]; 0.00398 s⁻¹ with rat IL-17A; 0.000229 s⁻¹ with cynomolgus monkey IL-17A [11]; 0.000494 s⁻¹ in the experiment with mouse IL-17A. In addition, the kon was 1.3e+06 M⁻¹ s⁻¹ with human IL-17A [9]; 1.07e+06 M⁻¹ s⁻¹ in the experiment with human IL-17A/F [10]; 716000 M⁻¹ s⁻¹ in the experiment with rat IL-17A; 934000 M⁻¹ s⁻¹ with cynomolgus monkey IL-17A [11]; 266000 M⁻¹ s⁻¹ with mouse IL-17A. The molecule also displayed an EC50 with human IL-17A [2] of 0.03 nM. Further, the “Potency (pM)” value with human IL-17A [3] came out at 18 pM; with cynomolgus monkey IL-17A [4], 16 pM.

B9: IL17-h5C5.20 (antibody, V domains shown)
VH: B6 VH
VL: B2 VL
notes: as for B2
Take B9: the EC50 with human IL-17A [2] was 0.03 nM. Further, the “Potency (pM)” value with human IL-17A [3] is 12 pM; with cynomolgus monkey IL-17A [4], 13 pM.

B10: IL17-h5C5.21 (antibody, V domains shown)
VH: B6 VH with M48I, V68A, I70L, A97T
VL: B2 VL
notes: IgG; constant regions not specified; also called h5C5.21 (VH.1b-Vk.3c)
Consider B10, for which the Kd with human IL-17A [9] is 0.729 nM; in the experiment with human IL-17A/F [10], 1.39 nM; with rat IL-17A it was 5.97 nM; with cynomolgus monkey IL-17A [11], 0.406 nM; with mouse IL-17A it was 3.06 nM. The koff amounted to 0.000395 s⁻¹ in the experiment with human IL-17A [9]; 0.00111 s⁻¹ with human IL-17A/F [10]; 0.0024 s⁻¹ with rat IL-17A; 0.00024 s⁻¹ with cynomolgus monkey IL-17A [11]; 0.000524 s⁻¹ with mouse IL-17A. For the same molecule, the on-rate constant (kon) with human IL-17A [9] was found to be 542000 M⁻¹ s⁻¹; with human IL-17A/F [10], 801000 M⁻¹ s⁻¹; with rat IL-17A it was 402000 M⁻¹ s⁻¹; with cynomolgus monkey IL-17A [11], 591000 M⁻¹ s⁻¹; in the experiment with mouse IL-17A, 171000 M⁻¹ s⁻¹. The molecule also returned an EC50 with human IL-17A [2] of 0.03 nM. The “Potency (pM)” value with human IL-17A [3] and with cynomolgus monkey IL-17A [4] was 9 pM each time.

B11: IL17-h5C5.11 (antibody, V domains shown)
VH: B6 VH
VL: B2 VL with N1E, F36Y, S43A, V58I, F87Y
notes: as for B2
The molecule B11 yielded an EC50 with human IL-17A [2] of 0.03 nM. Further, the figures for the “Potency (pM)” value with human IL-17A [3] and in the experiment with cynomolgus monkey IL-17A [4] were 115 pM and 90 pM, respectively.

B12: IL17-h10F7.4 (antibody, V domains shown)
VH: QVQLQQSGAELVRPGTSVTLSCKASGYIFTDYEIHWVKQTPVHGLEWIGVNDPESGGTFYNQKFDGKAELTADKSSSTAYMELRSLTSEDSGVYYCTRYYRYESFYGMDYWGQGTSITVSS
VL: DIQLTQSPSSLSASVGDRVTITCSASSSISYIYWFQQKPGKSPKRWIYATFELASGVPSRFSGSGSGTDYTLTISSLQPEDFATYYCHQRSSYPWTFGQGTKLEIKR
notes: as for B2
Turning to B12, it took 0.04 nM to reach a half-maximal effect in the experiment with human IL-17A [2] (EC50). In addition, the “Potency (pM)” value with human IL-17A [12] is 117 pM.

B13: IL17-h10F7.9 (antibody, V domains shown)
VH: B12 VH
VL: EIVLTQSPDFQSVTPKEKVTITCSASSSISYIYWFQQKPDQSPKRWIYATFELASGVPSRFSGSGSGTDYTLTINSLEAEDAATYYCHQRSSYPWTFGQGTKLEIKR
notes: as for B2
Regarding B13, the EC50 with human IL-17A [2] amounted to 0.04 nM. In addition, the “Potency (pM)” value with human IL-17A [12] worked out at 293 pM.

As a reminder, the EC50 is the concentration needed to bring the measured effect to its halfway point. For orientation: Kd means the concentration at which binding is half-saturated. For orientation: koff means the rate constant with which the complex falls apart. The kon is the second-order rate constant of association.
